Holding throughout (experiment): SPR
In series [1] the test system is HDL particle (high-density lipoprotein). The conditions noted are these: 5' disulfide; 100 nM HDL, selection buffer.
The subject of series [2] is H-LDL particle (small dense LDL). The conditions noted are these: 5' disulfide, unit inferred.
For series [3], the system named is LDL particle (low-density lipoprotein, apoB-containing), commercial. The conditions noted are these: 5' disulfide.
In series [4] the test system is L-LDL particle (large fluffy LDL). The conditions noted are these: 5' disulfide; unit inferred.
The mark [5] stands for this setting: 1 nM LDL added to 1% blood serum in selection buffer.
Setting [6] is: 1 nM LDL, selection buffer, repeat on gold chip.
Setting [7] is: aptamer on gold chip, unit inferred.
Where [8] appears, read: printed kD differs from kd/ka of same row.

pKd: −log10 of the molar value.

Turning to “AACTACATGGTATGTGGTGAACTAAACCATTCTTGTCTCGCATTTTTCTCTTTTATATTATTTGACGTACAATGTACCC [LDL-A38]”, the negative-log Kd (pKd) was 7.94 in series [1]; 9.63 in series [2]; 10.75 in series [3] (setting [5]); 10.68 in series [3] (setting [6]); 10.34 in series [3] (setting [7]).

For the sequence “AACTACATGGTATGTGGTGAACTAACCTTAATTTACCCTTGTTTTATCATTTCCATCATAGCTGACGTACAATGTACCC [LDL-A12]”, the pKd was 8.14 in series [1]; 10.64 in series [2]; 10.33 in series [3] (setting [5]); 10.97 in series [3] (setting [6]); 10.30 in series [3] (setting [7]).

“AACTACATGGTATGTGGTGAACTACCTCGATTTTATATTATTTCGCTTACCAACAACTGCAGAGACGTACAATGTACCC [LDL-A1]”: the negative logarithm of the Kd (pKd) is 8.05 in series [1], 10.49 in series [4], 8.91 in series [2] (setting [8]) and 11.77 in series [3] (setting [6]).

For “AACTACATGGTATGTGGTGAACTCACGCGCATAACCCTTTTTTCACCTGCCCTTTTAACTAATGACGTACAATGTACCC [LDL-A274]”, the pKd was 8.08 in series [1]; 9.32 in series [4]; 9.10 in series [2] (setting [8]); 9.94 in series [3] (setting [5]); 10.67 in series [3] (setting [6]); 10.11 in series [3] (setting [7]).

“AACTACATGGTATGTGGTGAACTGTCAGCTTCTTCTATATAATTCACCTTGCCTCTCGTTCCTGACGTACAATGTACCC [LDL-A2]”: the pKd in series [1] is 8.01; in series [4], 10.80; in series [3] (setting [5]), 11.29; in series [3] (setting [6]), 10.82; in series [3] (setting [7]) it was 10.38.

(Values after US20200131515.)
